According to patent US6214588:

Tested on: GAL4(1-147)-VP16 (Saccharomyces cerevisiae / herpes simplex virus?)
Conditions: in vitro transcription stimulation with purified holoenzyme, factor a, TBP; 10-fold in nuclear extract

In the case of pGAL4CG- (+GAL4 site template), the activity is reported as 5 fold.
